Results published in US20260217813A1 (published 2026).

Biological target: T1, IL-12 (Human IL12 (His Tag)), Sino Biological Cat. No. CT-050-H08H-20 (human, UniProt P29460 23-328; P29459 23-219)
T1 construct: Bought His-tagged p35/p40 heterodimer
T1 sequence (looked up) 1: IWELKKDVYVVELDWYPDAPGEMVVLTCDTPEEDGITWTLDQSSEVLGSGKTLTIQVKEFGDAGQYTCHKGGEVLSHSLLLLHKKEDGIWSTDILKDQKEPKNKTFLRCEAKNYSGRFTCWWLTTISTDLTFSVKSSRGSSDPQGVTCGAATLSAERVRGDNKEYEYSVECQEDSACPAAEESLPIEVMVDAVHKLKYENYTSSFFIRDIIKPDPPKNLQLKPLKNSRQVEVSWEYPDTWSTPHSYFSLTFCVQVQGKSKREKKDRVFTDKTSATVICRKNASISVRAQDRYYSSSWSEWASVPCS
T1 sequence (looked up) 2: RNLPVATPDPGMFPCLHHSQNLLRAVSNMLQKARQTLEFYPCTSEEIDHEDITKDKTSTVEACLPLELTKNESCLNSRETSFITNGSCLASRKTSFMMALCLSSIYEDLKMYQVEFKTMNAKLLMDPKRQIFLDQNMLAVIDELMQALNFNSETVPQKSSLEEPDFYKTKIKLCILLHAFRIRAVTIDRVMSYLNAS
Assay: FACS competition, IL12-His (40 nM mixed 1:1) on 293T-IL-12RB1&IL-23R cells
Description: 200 μL of 1% PBSA was added into each sample, and the mixture was centrifuged at 1200 rpm for 5 min to discard the supernatant. According to experiment design, correspondingly diluted antibody (highest final concentration of 60 μg/mL, 3-fold dilution, 8 concentrations in total) and IL12-His (Sino Biological, Cat. No.: CT-050-H08H-20) (40 nM) were mixed at a ratio of 1:1, and a blank control was set. The mixture of antibody and IL12 was incubated on ice for 30 min and then added to the cell precipitate at 100 μL/sample. The resulting mixture was well mixed and incubated on ice for 60 min. 200 μL of 1% PBSA was added, and the mixture was centrifuged at 1200 rpm for 5 min to discard the supernatant, and then washed twice. THETM His tag antibody (FITC) (Genscript, Cat. No.: A01620) was diluted at a ratio of 1:500 and added to each tube at 100 μL. The mixture was well mixed and incubated on ice for 40 min in the absence of light. 200 μL of 1% PBSA was added, and the mixture was centrifuged at 1200 rpm for 5 min to discard the supernatant, and then washed twice. 1% PBSA was added at 200 μL/tube, and the cells were resuspended and transferred to a flow cytometry tube for testing.

EC50: 1.46 µg/mL
B1: H8L15 (antibody, human IgG1, kappa, V domains shown)
VH: EVQLVQSGAEVKKPGESLKISCQSSGYTFTSYWIGWVRQMPGQGLEWIGIMSPVDSDIRYNPMFRGQVTMSVDKSSSTAYLQWSSLKASDTAMYYCARRRPGQGYFDFWGQGTMVTVSS
VL: EIVLTQSPATLSASPGERATISCRASQSVGTWVAWYQQKPGQAPRSLIYAASNLQSGIPARFSGSGSGTDFTLTISSLEPEDFAVYYCQQYNIYPYTFGQGTRLEIKR
notes: IgG1 (P01857) / kappa (P01834) constant regions
